The text below walks through data of paper PMC10203562.

Targets include bococizumab variant AEGQ; bococizumab variant PELW; bococizumab variant PENW; bococizumab variant SELW; bococizumab variant PEGQ; bococizumab; bococizumab variant EDGM; bococizumab variant AEPA; bococizumab variant PFGQ; bococizumab variant SEGQ; bococizumab variant PERQ.
Holding throughout (experiment): SPR; Biacore 8K+; anti-human IgG (Fc) amine-coupled to CM5 captures the antibody (10-25 RU); PCSK9 50 nM to 12 pM flowed over, 240 s association, 1800 s dissociation; Langmuir 1:1 global fit; duplicates

Turning to “proprotein convertase substilisin/kexin type 9 (PCSK9) (from UniProt Q8NBP7 153-692) (natural protein)”, the Kd with bococizumab variant AEGQ turned out to be 190 pM; with bococizumab variant PELW it was 190 pM; in the assay with bococizumab variant PENW, 240 pM; in the assay with bococizumab variant SELW, 270 pM; in the assay with bococizumab variant PEGQ, 200 pM; with bococizumab, 250 pM. The equilibrium dissociation constant (Kd) with bococizumab variant EDGM amounted to 660 pM; with bococizumab variant AEPA it was 210 pM; with bococizumab variant PFGQ it was 250 pM; with bococizumab variant SEGQ it was 350 pM; with bococizumab variant PERQ it was 250 pM.
